Consider one substance from article PMC9970984.

For this test, the target named is RNA polymerase II (RNAP II), endogenous. The test is described as follows: Co-IP (IP: myc, Western blot for RNA Pol II, band intensity printed below lanes). The settings on record: HCT116 cells transfected with myc-KAT8 WT or myc-KAT8 2KR plasmid; parent: 1.0. (Immunoblotting shows a protein as a band on a membrane.)

In the case of “myc-KAT8 (lysine acetyltransferase 8), wild type (from UniProt Q9H7Z6) K168R; K175R”, the ratio to parent came to 3.5.
